Measured values from publication PMC10558804.
One block for each substance: values may come before it.

Columns and labels:
Assay in all cases: native gel or EMSA; blue native-PAGE (BN-PAGE) of membrane proteins extracted from whole-cell lysates of transfected HEK 293 cells, 10 mM n-dodecyl-β-maltoside, 4 to 16% (or 3 to 12%) Bis/Tris gels, Western blot with anti-GluA1 or anti-GluA2; AMPAR subunit expressed alone or with an auxiliary subunit (cDNA 1:1); oligomeric states (tetramer, dimer, monomer) by molecular mass; tetramer fraction from band intensities; association of an auxiliary subunit read from the upshift of the tetramer band
[1] = target: GluA1(G816A) (rat (Rattus norvegicus))
[2] = target: GluA1-ΔECD (GluA1 lacking the extracellular ATD and LBD) (rat (Rattus norvegicus))
[3] = target: GluA2(R) (rat, flip splice variant, edited (R) form) (rat (Rattus norvegicus))
[4] = target: GluA1-TARP γ-2 tandem (rat (Rattus norvegicus) | rat)
[5] = target: GluA1 (rat, flip splice variant), wild type (rat (Rattus norvegicus))
[6] = target: GluA2(R)(G823A) (rat (Rattus norvegicus))
[7] = target: GluA1(G816A)-TARP γ-2 tandem (rat (Rattus norvegicus) | rat)

Substance: GluA1-ΔECD (GluA1 lacking the extracellular ATD and LBD) (domain or fragment)
stoichiometry N [2]: 4

Substance: GluA1-TARP γ-2 tandem
stoichiometry N [4]: 4

Substance: GluA1 (rat, flip splice variant), wild type (receptor)
stoichiometry N [5]: 4
tetramer fraction [5]: 0.84

More lines, now with the values ahead:

tetramer fraction [1]: 0.52
Substance: GluA1(G816A) (receptor)

stoichiometry N [3]: 4
tetramer fraction [3]: 0.89
Substance: GluA2(R) (rat, flip splice variant, edited (R) form) (receptor)

tetramer fraction [6]: 0.45
Substance: GluA2(R)(G823A) (receptor)

stoichiometry N [7]: 4
Substance: GluA1(G816A)-TARP γ-2 tandem
